From patent US20220089777A1 (ARONORA, published 2022)

B1: AB023, humanized anti-FXI monoclonal antibody (variant VH3/Vκ3, clone 3G3) (antibody, V domains shown)
VH: QVQLQESGPGLVKPSETLSITCTVSGFSLTGYGIYWVRQPPGKGLEWLGMIWGDGRTDYNSALKSRVTISKDNSKSQVSLKLSSVTAADTARYYCARDYYGSKDYWGQGTTVTVSS
VL: DIQMTQSPSSLSASVGDRVTITCKASQDVSTAVAWYQQKPGKAPKLLIYLTSYRNTGVPDRFSGSGSGTDFTFTISSLQPEDIAVYYCQQHYKTPYSFGGGTKVEIKR
notes: Human IgG4 with S241P (Kabat) hinge modification, kappa light chain; also called A13023; A8023

Key:
[1] = molecular target: T1, human coagulation factor XI (human, UniProt P03951 19-625); assay: cell-based or functional assay
[2] = molecular target: T1, human coagulation factor XI; assay: solid phase binding assay, biotinylated 14E11 on immobilized human FXI
[3] = molecular target: T2, mouse coagulation factor XI (mouse, UniProt Q91Y47 19-624); assay: solid phase binding assay, biotinylated 14E11 on immobilized mouse FXI
T2 construct: also called mouse FXI; mFXI

[4] = molecular target: human activated coagulation factor XI (FXIa) (human) (UniProt P03951); assay: solid phase binding assay, biotinylated 14E11 on immobilized human FXIa
[5] = molecular target: T1, human coagulation factor XI; assay: earlier solid phase binding assay (FIG. 2D), biotinylated 14E11 on immobilized FXI
[6] = molecular target: T2, mouse coagulation factor XI; assay: as above
[7] = molecular target: human activated coagulation factor XI (FXIa) (human) (UniProt P03951); assay: earlier solid phase binding assay (FIG. 2D), biotinylated 14E11 on immobilized FXIa
[8] = molecular target: T1, human coagulation factor XI; assay: solid phase binding assay, biotinylated antibody on immobilized FXI, apparent Kd
[9] = molecular target: T2, mouse coagulation factor XI; assay: as above
[10] = molecular target: T3, human activated coagulation factor XI (FXIa) (human, UniProt P03951 19-625); assay: solid phase binding assay, biotinylated antibody on immobilized FXIa, apparent Kd
T3 construct: also called human FXIa; hFXIa
Experimental: Microtiter plates were coated with FXI or FXIa (2 μg/ml, 100 μL/well) in 50 mmol/L Na₂CO₃ pH 9.6 was incubated overnight at 4° C. in Immulon 2HB microtiter plates (Thermo Scientific). Wells were blocked with 150 μL phosphate buffered saline (PBS) with 2% BSA for 1 hour at room temperature. […] After washing with PBS-0.1% Tween-20 (PBS T), 100 μL streptavidin-horse-radish-peroxidase (ThermoFisher Scientific, 1:8000 dilution in FIBS) was added, and incubated at room temperature for 90 minutes. After washing with PBS-T, 100 μL substrate solution (12 mL 30 mmol/L citric acid; 100 mmol/L Na₂HPO₄, pH 5.0; and 1 o-phenylenediamine dihydrochloride tablet, 12 μL 30% H₂O₂) was added. Reactions were stopped after 10 min with 50 μL 2.5 M H₂SO₄. […] The data was analyzed by non-linear regression analysis and the apparent Kd (equilibrium dissociation constant) was calculated as the concentration of AB023 needed to achieve half-max binding at equilibrium using GraphPad Prism (v. 5.0).

Molecule | aPTT of plasma, antibody concentration at maximum inhibition [1] [nM] | EC50 (read off the curve) [2] [pM] | EC50 (read off the curve) [3] [pM] | EC50 (read off the curve) [4] [pM] | Kd [5] [pM] | Kd [6] [pM] | Kd [7] [pM] | Kd [8] [nM] | Kd [9] [nM] | fold prolongation of aPTT of FXI deficient plasma + 10 µg/mL FXI after adding 100 µg/mL AB023 [1] [fold] | Kd [10] [nM]
14E11, murine monoclonal anti-FXI antibody | 25 to 50 | 3 | 3 | 3 | 2 to 3 | 2 to 3 | 2 to 3 | 0.39 | 0.07 | – | –
B1 | – | – | – | – | – | – | – | 3.2 | 0.16 | ~2 | 1.3
